Assay results taken from patent US20230383269A1 (DSM AUSTRIA, published 2023).

B1: alpha/beta hydrolase variant of SEQ ID NO: 24 (F69Y, N167T, F168Y, S174C, D179E, A182C, A183R, K186R, A187R, F218Y) (enzyme)
chain: MTDQSPETRDIFVPHAFEEQQVDLGEVVMNYVEAGSADHPALLLLPEQTGSWWSYEPVIGLLAESFHVYAVDIRGQGRSTWTPKRYSLDNFGNDLVRFISLVVKRPVIVSGNSSGGVLAAWLSAYAMPGQIRAALCEDTPFFASELVPAHGHSVRQAAGPAFELYRTYLGDQWCVADWEGFCRAARRSPSKIMSLFPSSDEPPQNLKEYDPEWARAFYEGTVALHCPHDLMLSQVKTPILITHHARAVDPHSGDLLGALSDFQAERAQAIIESAGVPVEYASFPDALHMMHQFEPERFAEVLTSWVARLPADTPGAHHHHHH
notes: homo-tetramer; also called zearalenone-cleaving polypeptide
B2: alpha/beta hydrolase variant of SEQ ID NO: 25 (A126S, N167T, F168Y, S174C, D179E, A182C, A183R, K186R, A187R, F218Y) (enzyme)
chain: MTDQSPETRDIFVPHAFEEQQVDLGEVVMNYVEAGSADHPALLLLPEQTGSWWSYEPVIGLLAESFHVFAVDIRGQGRSTWTPKRYSLDNFGNDLVRFISLVVKRPVIVSGNSSGGVLAAWLSAYSMPGQIRAALCEDTPFFASELVPAHGHSVRQAAGPAFELYRTYLGDQWCVADWEGFCRAARRSPSKIMSLFPSSDEPPQNLKEYDPEWARAFYEGTVALHCPHDLMLSQVKTPILITHHARAVDPHSGDLLGALSDFQAERAQAIIESAGVPVEYASFPDALHMMHQFEPERFAEVLTSWVARLPADTPGAHHHHHH
notes: as for B1
B3: alpha/beta hydrolase variant of SEQ ID NO: 26 (T139P N167T, F168Y, S174C, D179E, A182C, A183R, K186R, A187R, F218Y) (enzyme)
chain: MTDQSPETRDIFVPHAFEEQQVDLGEVVMNYVEAGSADHPALLLLPEQTGSWWSYEPVIGLLAESFHVFAVDIRGQGRSTWTPKRYSLDNFGNDLVRFISLVVKRPVIVSGNSSGGVLAAWLSAYAMPGQIRAALCEDPPFFASELVPAHGHSVRQAAGPAFELYRTYLGDQWCVADWEGFCRAARRSPSKIMSLFPSSDEPPQNLKEYDPEWARAFYEGTVALHCPHDLMLSQVKTPILITHHARAVDPHSGDLLGALSDFQAERAQAIIESAGVPVEYASFPDALHMMHQFEPERFAEVLTSWVARLPADTPGAHHHHHH
notes: as for B1
B4: alpha/beta hydrolase variant of SEQ ID NO: 27 (N167T, F168Y, S174C, D179E, A182C, A183R, K186R, A187R, F218Y, H225S) (enzyme)
chain: MTDQSPETRDIFVPHAFEEQQVDLGEVVMNYVEAGSADHPALLLLPEQTGSWWSYEPVIGLLAESFHVFAVDIRGQGRSTWTPKRYSLDNFGNDLVRFISLVVKRPVIVSGNSSGGVLAAWLSAYAMPGQIRAALCEDTPFFASELVPAHGHSVRQAAGPAFELYRTYLGDQWCVADWEGFCRAARRSPSKIMSLFPSSDEPPQNLKEYDPEWARAFYEGTVALSCPHDLMLSQVKTPILITHHARAVDPHSGDLLGALSDFQAERAQAIIESAGVPVEYASFPDALHMMHQFEPERFAEVLTSWVARLPADTPGAHHHHHH
notes: as for B1
B5: alpha/beta hydrolase variant of SEQ ID NO: 28 (N167T, F168Y, S174C, D179E, A182C, A183R, K186R, A187R, F218Y L230R) (enzyme)
chain: MTDQSPETRDIFVPHAFEEQQVDLGEVVMNYVEAGSADHPALLLLPEQTGSWWSYEPVIGLLAESFHVFAVDIRGQGRSTWTPKRYSLDNFGNDLVRFISLVVKRPVIVSGNSSGGVLAAWLSAYAMPGQIRAALCEDTPFFASELVPAHGHSVRQAAGPAFELYRTYLGDQWCVADWEGFCRAARRSPSKIMSLFPSSDEPPQNLKEYDPEWARAFYEGTVALHCPHDRMLSQVKTPILITHHARAVDPHSGDLLGALSDFQAERAQAIIESAGVPVEYASFPDALHMMHQFEPERFAEVLTSWVARLPADTPGAHHHHHH
notes: as for B1
B6: alpha/beta hydrolase variant of SEQ ID NO: 29 (N167T, F168Y, S174C, D179E, A182C, A183R, K186R, A187R, F218Y, A245V) (enzyme)
chain: MTDQSPETRDIFVPHAFEEQQVDLGEVVMNYVEAGSADHPALLLLPEQTGSWWSYEPVIGLLAESFHVFAVDIRGQGRSTWTPKRYSLDNFGNDLVRFISLVVKRPVIVSGNSSGGVLAAWLSAYAMPGQIRAALCEDTPFFASELVPAHGHSVRQAAGPAFELYRTYLGDQWCVADWEGFCRAARRSPSKIMSLFPSSDEPPQNLKEYDPEWARAFYEGTVALHCPHDLMLSQVKTPILITHHVRAVDPHSGDLLGALSDFQAERAQAIIESAGVPVEYASFPDALHMMHQFEPERFAEVLTSWVARLPADTPGAHHHHHH
notes: as for B1
B7: alpha/beta hydrolase variant of SEQ ID NO: 3 (N167T) (enzyme)
chain: MTDQSPETRDIFVPHAFEEQQVDLGEVVMNYVEAGSADHPALLLLPEQTGSWWSYEPVIGLLAESFHVFAVDIRGQGRSTWTPKRYSLDNFGNDLVRFISLVVKRPVIVSGNSSGGVLAAWLSAYAMPGQIRAALCEDTPFFASELVPAHGHSVRQAAGPAFELYRTFLGDQWSVADWDGFAAAAKASPSKIMSLFPSSDEPPQNLKEYDPEWARAFFEGTVALHCPHDLMLSQVKTPILITHHARAVDPHSGDLLGALSDFQAERAQAIIESAGVPVEYASFPDALHMMHQFEPERFAEVLTSWVARLPADTPGAHHHHHH
notes: as for B1
B8: alpha/beta hydrolase variant of SEQ ID NO: 30 (N167T, F168Y, S174C, D179E, A182C, A183R, K186R, A187R, F218Y, H251E) (enzyme)
chain: MTDQSPETRDIFVPHAFEEQQVDLGEVVMNYVEAGSADHPALLLLPEQTGSWWSYEPVIGLLAESFHVFAVDIRGQGRSTWTPKRYSLDNFGNDLVRFISLVVKRPVIVSGNSSGGVLAAWLSAYAMPGQIRAALCEDTPFFASELVPAHGHSVRQAAGPAFELYRTYLGDQWCVADWEGFCRAARRSPSKIMSLFPSSDEPPQNLKEYDPEWARAFYEGTVALHCPHDLMLSQVKTPILITHHARAVDPESGDLLGALSDFQAERAQAIIESAGVPVEYASFPDALHMMHQFEPERFAEVLTSWVARLPADTPGAHHHHHH
notes: as for B1
B9: alpha/beta hydrolase variant of SEQ ID NO: 31 (N167T, F168Y, S174C, D179E, A182C, A183R, K186R, A187R, F218Y, A281E) (enzyme)
chain: MTDQSPETRDIFVPHAFEEQQVDLGEVVMNYVEAGSADHPALLLLPEQTGSWWSYEPVIGLLAESFHVFAVDIRGQGRSTWTPKRYSLDNFGNDLVRFISLVVKRPVIVSGNSSGGVLAAWLSAYAMPGQIRAALCEDTPFFASELVPAHGHSVRQAAGPAFELYRTYLGDQWCVADWEGFCRAARRSPSKIMSLFPSSDEPPQNLKEYDPEWARAFYEGTVALHCPHDLMLSQVKTPILITHHARAVDPHSGDLLGALSDFQAERAQAIIESAGVPVEYESFPDALHMMHQFEPERFAEVLTSWVARLPADTPGAHHHHHH
notes: as for B1
B10: alpha/beta hydrolase variant of SEQ ID NO: 32 (N167T, F168Y, S174C, D179E, A182C, A183R, K186R, A187R, F218Y, L287T, M289S) (enzyme)
chain: MTDQSPETRDIFVPHAFEEQQVDLGEVVMNYVEAGSADHPALLLLPEQTGSWWSYEPVIGLLAESFHVFAVDIRGQGRSTWTPKRYSLDNFGNDLVRFISLVVKRPVIVSGNSSGGVLAAWLSAYAMPGQIRAALCEDTPFFASELVPAHGHSVRQAAGPAFELYRTYLGDQWCVADWEGFCRAARRSPSKIMSLFPSSDEPPQNLKEYDPEWARAFYEGTVALHCPHDLMLSQVKTPILITHHARAVDPHSGDLLGALSDFQAERAQAIIESAGVPVEYASFPDATHSMHQFEPERFAEVLTSWVARLPADTPGAHHHHHH
notes: as for B1
B11: alpha/beta hydrolase variant of SEQ ID NO: 33 (N167T, F168Y, S174C, D179E, A182C, A183R, K186R, A187R, F218Y, S293S) (enzyme)
chain: MTDQSPETRDIFVPHAFEEQQVDLGEVVMNYVEAGSADHPALLLLPEQTGSWWSYEPVIGLLAESFHVFAVDIRGQGRSTWTPKRYSLDNFGNDLVRFISLVVKRPVIVSGNSSGGVLAAWLSAYAMPGQIRAALCEDTPFFASELVPAHGHSVRQAAGPAFELYRTYLGDQWCVADWEGFCRAARRSPSKIMSLFPSSDEPPQNLKEYDPEWARAFYEGTVALHCPHDLMLSQVKTPILITHHARAVDPHSGDLLGALSDFQAERAQAIIESAGVPVEYASFPDALHMMHQSEPERFAEVLTSWVARLPADTPGAHHHHHH
notes: as for B1
B12: alpha/beta hydrolase variant of SEQ ID NO: 34 (N167T, F168Y, S174C, D179E, A182C, A183R, K186R, A187R, F218Y, S304R) (enzyme)
chain: MTDQSPETRDIFVPHAFEEQQVDLGEVVMNYVEAGSADHPALLLLPEQTGSWWSYEPVIGLLAESFHVFAVDIRGQGRSTWTPKRYSLDNFGNDLVRFISLVVKRPVIVSGNSSGGVLAAWLSAYAMPGQIRAALCEDTPFFASELVPAHGHSVRQAAGPAFELYRTYLGDQWCVADWEGFCRAARRSPSKIMSLFPSSDEPPQNLKEYDPEWARAFYEGTVALHCPHDLMLSQVKTPILITHHARAVDPHSGDLLGALSDFQAERAQAIIESAGVPVEYASFPDALHMMHQFEPERFAEVLTRWVARLPADTPGAHHHHHH
notes: as for B1

Target: the molecule itself
Assay: Blue-Native-PAGE, oligomeric conformation (self-association of identical chains)
Source text: Comparison of the native molecular weight (oligomeric conformation) between single purified zearalenone-cleaving polypeptides was done via Blue-Native-PAGE. Dilutions of the elutes were supplied with not denaturating loading dye (e.g. 2× loading dye: 0.126 M tris(hydroxymethyl)aminomethan/hydrochloric acid pH 6.8, 20.0% glycerol, 4.0% Coomassie Blue G-250) and separated on a 4-15% polyacrylamid gel under native conditions (e.g. Mini-PROTEAN® Tetra Cell System, 1658004EDU+4-15% Mini-PROTEAN® TGX™ Precast Protein Gels, 4561083EDU, Bio-Rad Laboratories GmbH) (5× Anode Buffer: 0.125 M Tris(hydroxymethyl)aminomethane, 0.960 M Glycine, 1× Kathode Buffer: Anode Buffer+0.02% Coomassie Blue G250; 200 V, 40 minutes). The peptide bands were visualized by Coomassie staining. The oligomeric state of selected zearalenone-cleaving polypeptides was determined by size exclusion chromatography, SEC-MALS or X-Ray crystallography. Homo-dimers (e.g. SEQ ID NO. 1) migrated faster across the BN-PAGE gel matrix, while homo-tetramers (e.g. SEQ ID NO. 2-35) were retained in the gel matrix to a higher extent. The oligomeric conformation of the zearalenone-cleaving polypeptides was determined relatively to the migration of homo-dimeric and homo-tetrameric peptides.

Binding result, binds:
B1
B2
B3
B4
B5
B6
B7
B8
B9
B10
B11
B12
